Values of other authors in PMC7508936.

Molecular target: galectin-1 (Homo sapiens) (UniProt P09382)
Sequence of UniProt P09382 (P09382 2-135): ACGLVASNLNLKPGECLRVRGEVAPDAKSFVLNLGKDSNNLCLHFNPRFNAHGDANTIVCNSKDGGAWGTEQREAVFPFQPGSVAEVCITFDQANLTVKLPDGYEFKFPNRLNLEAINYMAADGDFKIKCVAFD

Question: With PSG1 (from UniProt P11464) as the substance, how does the Kd read?
Answer: 130 nM
